# Earlier results in PMC9776569.
# Assays:
# [1] = target: His6 (UniProt position 7, SDKIIHLTDDS); conditions: redox state not stated in this article
# [2] = target: Asp26 (UniProt position 27, GAILVDFWAEW); conditions: redox state not stated in this article
# [3] = target: Nterm1 (UniProt position 2, ----MSDKIIH); conditions: redox state not stated in this article
# [4] = target: Cys35 (UniProt position 36, EWCGPCKMIAP); conditions: reduced (free thiols at Cys-32 and Cys-35)
# [5] = target: Asp20 (UniProt position 21, DVLKADGAILV); conditions: redox state not stated in this article
# [6] = target: Cys32 (UniProt position 33, FWAEWCGPCKM); conditions: reduced (free thiols at Cys-32 and Cys-35)
# [7] = target: Tyr23 (UniProt position 41, DNYRGYSLGNW)
# [8] = target: Tyr20 (UniProt position 38, HGLDNYRGYSL)
# [9] = target: Cterm129 (UniProt position 147, IRGCRL-----)
# [10] = target: Lys33 (UniProt position 51, WVCAAKFESNF)
# [11] = target: Tyr53 (UniProt position 71, DGSTDYGILQI)
# [12] = target: Asp18 (UniProt position 36, KRHGLDNYRGY)
# [13] = target: Asp87 (UniProt position 105, ALLSSDITASV)
# [14] = target: Glu35 (UniProt position 53, CAAKFESNFNT)
# [15] = target: Asp48 (UniProt position 66, TNRNTDGSTDY)
# [16] = target: Nterm1 (UniProt position 19, LAALGKVFGRC)
# [17] = target: Lys96 (UniProt position 114, SVNCAKKIVSD)
# [18] = target: Lys116 (UniProt position 134, WRNRCKGTDVQ)
# [19] = target: Glu7 (UniProt position 25, VFGRCELAAAM)
# [20] = target: Asp66 (UniProt position 84, RWWCNDGRTPG)
# [21] = target: Asp52 (UniProt position 70, TDGSTDYGILQ)
# [22] = target: His15 (UniProt position 33, AAMKRHGLDNY)
# [23] = target: Asp101 (UniProt position 119, KKIVSDGNGMN)
# [24] = target: Lys97 (UniProt position 115, VNCAKKIVSDG)
# [25] = target: Asp119 (UniProt position 137, RCKGTDVQAWI)
# [26] = target: Lys13 (UniProt position 31, LAAAMKRHGLD)
# [27] = target: Lys1 (UniProt position 19, LAALGKVFGRC)
# [28] = target: Glu13 (UniProt position 13, KTAFQEALDAA); conditions: redox state not stated in this article
# [29] = target: Asp26 (UniProt position 26, KLVVVDFSATW); conditions: redox state not stated in this article
# [30] = target: Glu6 (UniProt position 6, MVKQIESKTAF); conditions: redox state not stated in this article
# [31] = target: Asp16 (UniProt position 16, FQEALDAAGDK); conditions: redox state not stated in this article
# [32] = target: Glu56 (UniProt position 56, NVIFLEVDVDD); conditions: redox state not stated in this article
# [33] = target: Glu88 (UniProt position 88, GQKVGEFSGAN); conditions: redox state not stated in this article
# [34] = target: Asp64 (UniProt position 64, VDDCQDVASEC); conditions: redox state not stated in this article
# [35] = target: Glu47 (UniProt position 47, FHSLSEKYSNV); conditions: redox state not stated in this article
# [36] = target: Asp61 (UniProt position 61, EVDVDDCQDVA); conditions: redox state not stated in this article
# [37] = target: Asp58 (UniProt position 58, IFLEVDVDDCQ); conditions: redox state not stated in this article
# [38] = target: Glu68 (UniProt position 68, QDVASECEVKC); conditions: redox state not stated in this article
# [39] = target: Glu98 (UniProt position 98, NKEKLEATINE); conditions: redox state not stated in this article
# [40] = target: Glu95 (UniProt position 95, SGANKEKLEAT); conditions: redox state not stated in this article
# [41] = target: Asp20 (UniProt position 20, LDAAGDKLVVV); conditions: redox state not stated in this article
# [42] = target: Asp60 (UniProt position 60, LEVDVDDCQDV); conditions: redox state not stated in this article
# [43] = target: Glu70 (UniProt position 70, VASECEVKCMP); conditions: redox state not stated in this article
# [44] = target: Glu103 (UniProt position 103, EATINELV---); conditions: redox state not stated in this article
# [45] = target: Glu122 (UniProt position 204, PNNTHEQHLRK)
# [46] = target: His8 (UniProt position 90, STKKLHKEPAT)
# [47] = target: His121 (UniProt position 203, KPNNTHEQHLR)
# [48] = target: His46 (UniProt position 128, TPETKHPKKGV)
# [49] = target: Glu73 (UniProt position 155, NAKKIEVEFDK)
# [50] = target: Glu135 (UniProt position 217, AQAKKEKLNIW)
# [51] = target: Glu75 (UniProt position 157, KKIEVEFDKGQ)
# [52] = target: Glu57 (UniProt position 139, EKYGPEASAFT)
# [53] = target: Glu43 (UniProt position 125, LVDTPETKHPK)
# [54] = target: Glu129 (UniProt position 211, HLRKSEAQAKK)
# [55] = target: Glu52 (UniProt position 134, PKKGVEKYGPE)
# [56] = target: Asp40 (UniProt position 122, RLLLVDTPETK)
# [57] = target: His124 (UniProt position 206, NTHEQHLRKSE)
# [58] = target: Asp143 (UniProt position 225, NIWSEDNADSG)
# [59] = target: Asp146 (UniProt position 228, SEDNADSGQ--)
# [60] = target: Glu142 (UniProt position 224, LNIWSEDNADS)
# [61] = target: Glu67 (UniProt position 149, TKKMVENAKKI)
# [62] = target: Glu101 (UniProt position 183, GKMVNEALVRQ)
# [63] = target: Glu10 (UniProt position 92, KKLHKEPATLI)
# [64] = target: Asp95 (UniProt position 177, AYIYADGKMVN)
substance,measurement,setting,value
Escherichia coli thioredoxin 1 (EcTrx) (Escherichia coli),pKa,[1],6.20
same,pKa,[2],7.50
same,pKa,[3],7.40
same,pKa,[4],9.90
same,pKa,[5],3.80
same,pKa,[6],7.10
Hen egg-white lysozyme (HEWL) (Gallus gallus),pKa,[7],9.80
same,pKa,[8],10.30
same,pKa,[9],2.75
same,pKa,[10],10.60
same,pKa,[11],12.10
same,pKa,[12],2.66
same,pKa,[13],2.07
same,pKa,[14],6.20
same,pKa,[15],1.60
same,pKa,[16],7.90
same,pKa,[17],10.80
same,pKa,[18],10.40
same,pKa,[19],2.85
same,pKa,[20],0.90
same,pKa,[21],3.68
same,pKa,[22],5.36
same,pKa,[23],4.09
same,pKa,[24],10.30
same,pKa,[25],3.20
same,pKa,[26],10.60
same,pKa,[27],10.90
Human thioredoxin (hTrx) (Homo sapiens),pKa,[28],4.40
same,pKa,[29],9.90
same,pKa,[30],4.80
same,pKa,[31],4.00
same,pKa,[32],3.10
same,pKa,[33],3.70
same,pKa,[34],3.20
same,pKa,[35],4.10
same,pKa,[36],5.30
same,pKa,[37],2.80
same,pKa,[38],4.90
same,pKa,[39],3.90
same,pKa,[40],4.10
same,pKa,[41],3.80
same,pKa,[42],4.20
same,pKa,[43],4.60
same,pKa,[44],4.40
Staphylococcal nuclease (SNase) (Staphylococcus aureus),pKa,[45],3.89
same,pKa,[46],6.52
same,pKa,[47],5.30
same,pKa,[48],5.86
same,pKa,[49],3.31
same,pKa,[50],3.76
same,pKa,[51],3.26
same,pKa,[52],3.49
same,pKa,[53],4.32
same,pKa,[54],3.75
same,pKa,[55],3.93
same,pKa,[56],3.87
same,pKa,[57],5.73
same,pKa,[58],3.80
same,pKa,[59],3.86
same,pKa,[60],4.49
same,pKa,[61],3.76
same,pKa,[62],3.81
same,pKa,[63],2.82
same,pKa,[64],2.16
